The series deals with the molecule itself. Nature of the series: size exclusion chromatography (Superdex 75); self-association. (In general: SEC sorts molecules by how far they enter the pores of the column.)

Residue numbers refer to the chain shown, from its start. Names and notes keep the numbering of the source.

B1: Cricetulus griseus galectin-1 (wild-type), produced from the pCarONE vector (other)
chain: ACGLVASNLNLKPGECLKVRGEVAPDAKSFVLNLGKDSNNLCLHFNPRFNAHGDANTIVCNSKDNGAWGTEHREPAFPFQPGSTVEVCITFDQADLTIKLPDGHEFKFPNRLNMEAINYMAADGDFKIKCVAFE
notes: Lectin; recombinant from E. coli; The entries are about self-association (homodimer, printed as 2x16.6 kDa); also called Gal1 wild-type; Gal1; not shown: spacer arm and TEV protease cleavage site encoded by pCarONE
As for B1, the binding result is “binds”.

B2: E16K mutant of Cricetulus griseus galectin-1 (other)
chain: B1 chain with E15K
notes: Recombinant from E. coli; tested for self-association by size exclusion chromatography; also called Gal1 E16K; Gal1 mutant E16K; not shown: spacer arm and TEV protease cleavage site encoded by pCarONEE16K
On to B2, for which the binding result is listed as “binds”.

B3: C131E mutant of Cricetulus griseus galectin-1 (other)
chain: ACGLVASNLNLKPGECLKVRGEVAPDAKSFVLNLGKDSNNLCLHFNPRFNAHGDANTIVCNSKDNGAWGTEHREPAFPFQPGSTVEVCITFDQADLTIKLPDGHEFKFPNRLNMEAINYMAADGDFKIKEVAFEELSSGVDLGTENLYFQS
notes: also called Gal1 C131E; Gal1 mutant C131E
In the case of B3, the binding result is given as “no binding”.
